The values below come from patent US20200087347 (published 2020).

Where no end group is shown, it is not given here. Side-chain parts run from the residue outwards. [ ]: non-standard residue; d: D form. The star is where a group is joined. BODIPY(FL) = CC1=CC(C)=[N+]2C1=Cc1ccc(CCC(=O)*)n1[B-]2(F)F; NMeK = CN[C@@H](CCCCN)C(=O)O

Common to all, as to experiment: competition
One assay deals with integrin α5β1 (human, UniProt P08648).
The next assay addresses integrin αIIbβ3 (human, UniProt P08514).
In a further assay the target is T1, integrin αvβ8 (human, UniProt P06756).
T1 chain 1: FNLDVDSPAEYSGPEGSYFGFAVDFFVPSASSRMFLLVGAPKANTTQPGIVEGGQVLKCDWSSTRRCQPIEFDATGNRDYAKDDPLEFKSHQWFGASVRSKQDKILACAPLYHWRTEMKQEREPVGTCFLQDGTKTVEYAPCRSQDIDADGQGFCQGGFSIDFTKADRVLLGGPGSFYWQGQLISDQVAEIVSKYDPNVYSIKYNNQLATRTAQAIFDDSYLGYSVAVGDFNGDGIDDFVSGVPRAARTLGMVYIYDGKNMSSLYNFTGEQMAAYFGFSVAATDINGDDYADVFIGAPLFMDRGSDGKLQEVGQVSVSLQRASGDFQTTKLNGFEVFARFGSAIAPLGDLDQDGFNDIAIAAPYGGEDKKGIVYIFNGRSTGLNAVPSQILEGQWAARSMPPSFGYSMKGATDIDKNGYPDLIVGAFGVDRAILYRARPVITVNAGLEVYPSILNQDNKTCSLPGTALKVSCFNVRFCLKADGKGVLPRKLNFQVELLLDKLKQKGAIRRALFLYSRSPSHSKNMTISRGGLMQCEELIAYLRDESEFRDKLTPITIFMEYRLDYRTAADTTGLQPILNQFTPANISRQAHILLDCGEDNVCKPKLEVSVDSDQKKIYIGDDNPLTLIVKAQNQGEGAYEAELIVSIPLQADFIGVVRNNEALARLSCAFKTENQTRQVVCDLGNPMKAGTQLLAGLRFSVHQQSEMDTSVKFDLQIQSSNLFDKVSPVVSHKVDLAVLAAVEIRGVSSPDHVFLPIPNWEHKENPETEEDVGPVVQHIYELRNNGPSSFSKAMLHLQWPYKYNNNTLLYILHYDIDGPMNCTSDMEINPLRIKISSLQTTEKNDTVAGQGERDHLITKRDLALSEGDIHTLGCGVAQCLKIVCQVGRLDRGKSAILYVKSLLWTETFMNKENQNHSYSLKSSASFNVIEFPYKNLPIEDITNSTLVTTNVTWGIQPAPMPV
T1 chain 2: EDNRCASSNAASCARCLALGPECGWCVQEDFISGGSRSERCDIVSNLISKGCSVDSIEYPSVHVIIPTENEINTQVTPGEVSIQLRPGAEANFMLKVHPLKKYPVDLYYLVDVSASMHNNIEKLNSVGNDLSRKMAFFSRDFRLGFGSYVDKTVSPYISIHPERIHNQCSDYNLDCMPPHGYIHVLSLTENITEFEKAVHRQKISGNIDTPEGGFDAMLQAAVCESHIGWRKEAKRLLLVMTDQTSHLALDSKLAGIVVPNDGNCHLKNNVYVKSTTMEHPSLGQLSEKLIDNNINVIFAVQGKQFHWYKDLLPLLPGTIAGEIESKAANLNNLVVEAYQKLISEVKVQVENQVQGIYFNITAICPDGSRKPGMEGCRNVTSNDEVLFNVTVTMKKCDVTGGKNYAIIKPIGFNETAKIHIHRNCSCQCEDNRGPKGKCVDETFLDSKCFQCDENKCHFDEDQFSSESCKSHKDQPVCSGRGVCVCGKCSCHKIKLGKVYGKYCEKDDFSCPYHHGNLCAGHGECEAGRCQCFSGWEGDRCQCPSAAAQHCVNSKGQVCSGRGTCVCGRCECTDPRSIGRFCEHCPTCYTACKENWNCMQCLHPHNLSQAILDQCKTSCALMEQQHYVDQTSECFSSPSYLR

The next assay deals with T2, integrin αvβ5 (human, UniProt P06756).
T2 chain 1: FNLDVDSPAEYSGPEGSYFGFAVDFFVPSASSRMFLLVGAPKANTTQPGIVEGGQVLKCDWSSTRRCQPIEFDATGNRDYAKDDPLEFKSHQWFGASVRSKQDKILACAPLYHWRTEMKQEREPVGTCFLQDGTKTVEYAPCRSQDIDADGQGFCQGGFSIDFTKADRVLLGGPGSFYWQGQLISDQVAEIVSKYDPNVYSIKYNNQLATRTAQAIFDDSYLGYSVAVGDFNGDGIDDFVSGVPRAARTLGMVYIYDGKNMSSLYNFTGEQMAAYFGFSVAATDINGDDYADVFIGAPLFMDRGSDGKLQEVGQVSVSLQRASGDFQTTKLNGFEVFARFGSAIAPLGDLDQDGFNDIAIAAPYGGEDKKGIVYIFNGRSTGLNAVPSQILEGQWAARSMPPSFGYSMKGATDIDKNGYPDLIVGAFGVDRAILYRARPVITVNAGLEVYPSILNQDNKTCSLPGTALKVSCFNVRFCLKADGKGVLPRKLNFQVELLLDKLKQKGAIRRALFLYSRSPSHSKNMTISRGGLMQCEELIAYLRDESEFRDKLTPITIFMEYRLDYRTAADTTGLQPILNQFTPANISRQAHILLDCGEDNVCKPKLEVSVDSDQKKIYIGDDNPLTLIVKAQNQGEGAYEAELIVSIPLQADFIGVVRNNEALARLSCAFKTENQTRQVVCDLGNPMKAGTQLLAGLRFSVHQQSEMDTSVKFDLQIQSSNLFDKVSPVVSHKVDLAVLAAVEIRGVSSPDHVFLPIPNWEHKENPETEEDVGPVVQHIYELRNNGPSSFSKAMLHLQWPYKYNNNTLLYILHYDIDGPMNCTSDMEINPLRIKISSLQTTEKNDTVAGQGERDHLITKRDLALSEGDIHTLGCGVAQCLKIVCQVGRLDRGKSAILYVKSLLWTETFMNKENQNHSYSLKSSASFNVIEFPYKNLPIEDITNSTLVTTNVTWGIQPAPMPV
T2 chain 2: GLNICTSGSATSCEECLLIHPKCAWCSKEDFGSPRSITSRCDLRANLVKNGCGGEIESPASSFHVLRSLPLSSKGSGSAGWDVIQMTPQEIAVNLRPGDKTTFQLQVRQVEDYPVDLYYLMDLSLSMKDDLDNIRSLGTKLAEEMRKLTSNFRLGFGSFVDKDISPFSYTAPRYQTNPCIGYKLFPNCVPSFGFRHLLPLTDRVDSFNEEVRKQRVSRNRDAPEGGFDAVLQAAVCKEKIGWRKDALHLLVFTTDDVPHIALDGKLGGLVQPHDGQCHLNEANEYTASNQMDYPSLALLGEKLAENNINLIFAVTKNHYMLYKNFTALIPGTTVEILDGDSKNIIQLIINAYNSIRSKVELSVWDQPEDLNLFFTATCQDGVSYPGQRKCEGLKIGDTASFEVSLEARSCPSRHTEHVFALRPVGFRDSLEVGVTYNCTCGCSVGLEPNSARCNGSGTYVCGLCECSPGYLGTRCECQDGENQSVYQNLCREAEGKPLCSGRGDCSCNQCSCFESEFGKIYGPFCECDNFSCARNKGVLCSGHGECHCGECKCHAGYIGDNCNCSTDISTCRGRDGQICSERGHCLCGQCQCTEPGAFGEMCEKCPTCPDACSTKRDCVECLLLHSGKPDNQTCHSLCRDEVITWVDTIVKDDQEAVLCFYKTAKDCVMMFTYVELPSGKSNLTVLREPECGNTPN

The target in the next assay is T3, integrin αvβ6 (human, UniProt P06756).
T3 chain 1: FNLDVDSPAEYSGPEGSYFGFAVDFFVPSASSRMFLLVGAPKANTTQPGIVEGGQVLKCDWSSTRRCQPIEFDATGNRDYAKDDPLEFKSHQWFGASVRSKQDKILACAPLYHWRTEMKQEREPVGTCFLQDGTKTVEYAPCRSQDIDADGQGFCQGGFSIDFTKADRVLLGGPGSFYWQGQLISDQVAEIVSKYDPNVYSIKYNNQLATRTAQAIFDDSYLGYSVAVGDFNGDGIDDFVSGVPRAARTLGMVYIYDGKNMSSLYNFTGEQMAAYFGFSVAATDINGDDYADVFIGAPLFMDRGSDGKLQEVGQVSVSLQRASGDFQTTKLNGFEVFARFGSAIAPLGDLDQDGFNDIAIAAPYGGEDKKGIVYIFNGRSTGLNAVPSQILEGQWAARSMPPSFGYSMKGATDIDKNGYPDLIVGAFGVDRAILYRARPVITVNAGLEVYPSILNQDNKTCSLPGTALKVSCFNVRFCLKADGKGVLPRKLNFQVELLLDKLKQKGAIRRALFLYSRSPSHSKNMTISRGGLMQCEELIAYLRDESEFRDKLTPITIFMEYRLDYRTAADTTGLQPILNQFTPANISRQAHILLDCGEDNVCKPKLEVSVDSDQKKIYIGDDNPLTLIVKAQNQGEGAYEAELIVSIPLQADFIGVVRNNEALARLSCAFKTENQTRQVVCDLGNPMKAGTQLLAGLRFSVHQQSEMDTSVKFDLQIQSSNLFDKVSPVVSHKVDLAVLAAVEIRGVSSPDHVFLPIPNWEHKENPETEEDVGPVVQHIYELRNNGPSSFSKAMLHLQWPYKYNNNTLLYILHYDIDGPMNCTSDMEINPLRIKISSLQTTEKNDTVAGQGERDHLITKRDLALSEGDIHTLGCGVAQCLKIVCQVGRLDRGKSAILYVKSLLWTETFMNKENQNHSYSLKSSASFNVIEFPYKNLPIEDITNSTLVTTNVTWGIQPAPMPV
T3 chain 2: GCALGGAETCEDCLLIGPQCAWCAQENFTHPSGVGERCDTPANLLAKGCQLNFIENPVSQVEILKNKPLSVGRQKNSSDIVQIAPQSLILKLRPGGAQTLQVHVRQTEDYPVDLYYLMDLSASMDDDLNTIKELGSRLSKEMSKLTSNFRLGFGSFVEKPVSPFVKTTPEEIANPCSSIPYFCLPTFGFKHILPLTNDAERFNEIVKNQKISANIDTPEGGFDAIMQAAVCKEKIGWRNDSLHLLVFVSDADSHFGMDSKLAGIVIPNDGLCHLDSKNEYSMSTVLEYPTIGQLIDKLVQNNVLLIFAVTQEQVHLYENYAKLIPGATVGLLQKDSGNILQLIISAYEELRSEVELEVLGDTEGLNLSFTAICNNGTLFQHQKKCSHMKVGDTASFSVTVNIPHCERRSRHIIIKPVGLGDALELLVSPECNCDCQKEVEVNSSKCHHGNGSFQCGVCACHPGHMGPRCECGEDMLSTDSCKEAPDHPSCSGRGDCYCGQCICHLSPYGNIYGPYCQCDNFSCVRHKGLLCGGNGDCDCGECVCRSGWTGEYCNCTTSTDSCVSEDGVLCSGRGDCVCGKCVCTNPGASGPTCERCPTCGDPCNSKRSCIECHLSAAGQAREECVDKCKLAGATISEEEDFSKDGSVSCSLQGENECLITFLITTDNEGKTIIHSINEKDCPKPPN

The target of the next assay is T4, integrin αvβ3 (human, UniProt P06756).
T4 chain 1: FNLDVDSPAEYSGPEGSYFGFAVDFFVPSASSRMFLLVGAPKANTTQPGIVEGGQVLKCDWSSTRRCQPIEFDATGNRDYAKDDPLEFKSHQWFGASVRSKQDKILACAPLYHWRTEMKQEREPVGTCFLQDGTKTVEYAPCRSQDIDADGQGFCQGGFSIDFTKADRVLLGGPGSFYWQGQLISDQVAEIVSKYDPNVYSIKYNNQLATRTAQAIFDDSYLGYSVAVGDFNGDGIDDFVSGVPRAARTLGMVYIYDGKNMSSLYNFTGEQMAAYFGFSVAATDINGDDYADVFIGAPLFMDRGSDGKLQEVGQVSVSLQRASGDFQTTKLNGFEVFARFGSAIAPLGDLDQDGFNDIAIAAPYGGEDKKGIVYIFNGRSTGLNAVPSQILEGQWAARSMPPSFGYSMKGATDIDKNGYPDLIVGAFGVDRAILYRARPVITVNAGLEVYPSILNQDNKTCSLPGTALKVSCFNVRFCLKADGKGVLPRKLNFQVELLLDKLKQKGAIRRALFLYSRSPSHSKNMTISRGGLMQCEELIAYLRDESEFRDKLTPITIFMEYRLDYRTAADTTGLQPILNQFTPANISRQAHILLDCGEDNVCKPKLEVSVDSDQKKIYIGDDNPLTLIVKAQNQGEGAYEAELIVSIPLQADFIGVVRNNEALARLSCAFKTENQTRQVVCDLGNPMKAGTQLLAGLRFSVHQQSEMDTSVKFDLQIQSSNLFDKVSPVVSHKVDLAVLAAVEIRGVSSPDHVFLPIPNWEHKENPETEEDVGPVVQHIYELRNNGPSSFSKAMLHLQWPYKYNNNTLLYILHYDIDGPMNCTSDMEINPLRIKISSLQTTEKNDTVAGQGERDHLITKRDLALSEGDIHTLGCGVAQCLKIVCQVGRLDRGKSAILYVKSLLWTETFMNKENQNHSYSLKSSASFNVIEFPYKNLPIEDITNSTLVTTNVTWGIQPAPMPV
T4 chain 2: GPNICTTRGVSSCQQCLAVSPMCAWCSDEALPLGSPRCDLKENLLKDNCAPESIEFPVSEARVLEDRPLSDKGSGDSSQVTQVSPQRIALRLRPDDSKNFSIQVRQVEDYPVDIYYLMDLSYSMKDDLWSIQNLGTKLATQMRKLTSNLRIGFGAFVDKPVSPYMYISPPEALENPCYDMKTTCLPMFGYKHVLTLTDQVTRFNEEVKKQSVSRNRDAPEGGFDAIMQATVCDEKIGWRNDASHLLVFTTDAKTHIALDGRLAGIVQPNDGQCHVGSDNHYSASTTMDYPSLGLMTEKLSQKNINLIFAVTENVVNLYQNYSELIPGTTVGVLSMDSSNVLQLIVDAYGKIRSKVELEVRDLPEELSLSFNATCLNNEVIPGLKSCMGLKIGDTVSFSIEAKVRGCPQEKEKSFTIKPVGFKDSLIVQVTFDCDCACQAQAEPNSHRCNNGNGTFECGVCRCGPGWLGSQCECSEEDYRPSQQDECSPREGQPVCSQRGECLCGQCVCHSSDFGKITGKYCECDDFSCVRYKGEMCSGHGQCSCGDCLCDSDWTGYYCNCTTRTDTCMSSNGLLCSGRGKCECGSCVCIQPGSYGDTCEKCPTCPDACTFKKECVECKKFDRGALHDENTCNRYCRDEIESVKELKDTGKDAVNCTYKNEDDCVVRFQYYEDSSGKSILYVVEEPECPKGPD

Sequence of integrin α5β1 (P08648 42-1049, chain 1 of 2): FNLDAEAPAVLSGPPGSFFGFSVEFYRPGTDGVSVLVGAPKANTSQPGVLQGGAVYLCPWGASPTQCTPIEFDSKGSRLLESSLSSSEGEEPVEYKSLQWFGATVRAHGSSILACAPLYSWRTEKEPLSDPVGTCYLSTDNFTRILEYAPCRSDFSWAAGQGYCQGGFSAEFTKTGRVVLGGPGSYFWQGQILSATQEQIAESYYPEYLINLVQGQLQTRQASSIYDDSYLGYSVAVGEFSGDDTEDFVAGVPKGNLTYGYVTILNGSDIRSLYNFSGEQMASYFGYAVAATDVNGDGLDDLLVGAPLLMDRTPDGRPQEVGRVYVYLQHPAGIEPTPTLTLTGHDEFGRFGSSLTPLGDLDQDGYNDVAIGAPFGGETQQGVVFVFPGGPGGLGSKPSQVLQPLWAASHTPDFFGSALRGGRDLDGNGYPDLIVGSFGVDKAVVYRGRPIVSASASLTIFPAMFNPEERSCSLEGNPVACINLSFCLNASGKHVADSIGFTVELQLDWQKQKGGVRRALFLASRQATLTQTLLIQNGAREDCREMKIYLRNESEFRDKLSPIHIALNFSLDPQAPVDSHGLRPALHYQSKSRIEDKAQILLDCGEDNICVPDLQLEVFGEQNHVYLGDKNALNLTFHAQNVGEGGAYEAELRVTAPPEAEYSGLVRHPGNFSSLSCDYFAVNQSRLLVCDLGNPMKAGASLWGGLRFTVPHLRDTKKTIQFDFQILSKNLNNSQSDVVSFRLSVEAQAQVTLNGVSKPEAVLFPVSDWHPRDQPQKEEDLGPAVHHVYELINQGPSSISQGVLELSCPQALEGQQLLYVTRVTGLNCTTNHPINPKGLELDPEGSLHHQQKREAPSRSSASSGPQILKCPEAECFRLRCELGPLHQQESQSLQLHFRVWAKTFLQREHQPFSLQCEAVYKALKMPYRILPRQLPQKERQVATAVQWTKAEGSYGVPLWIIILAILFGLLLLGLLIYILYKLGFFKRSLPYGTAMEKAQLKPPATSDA
Sequence of integrin α5β1 (chain, as listed by the source, chain 2 of 2): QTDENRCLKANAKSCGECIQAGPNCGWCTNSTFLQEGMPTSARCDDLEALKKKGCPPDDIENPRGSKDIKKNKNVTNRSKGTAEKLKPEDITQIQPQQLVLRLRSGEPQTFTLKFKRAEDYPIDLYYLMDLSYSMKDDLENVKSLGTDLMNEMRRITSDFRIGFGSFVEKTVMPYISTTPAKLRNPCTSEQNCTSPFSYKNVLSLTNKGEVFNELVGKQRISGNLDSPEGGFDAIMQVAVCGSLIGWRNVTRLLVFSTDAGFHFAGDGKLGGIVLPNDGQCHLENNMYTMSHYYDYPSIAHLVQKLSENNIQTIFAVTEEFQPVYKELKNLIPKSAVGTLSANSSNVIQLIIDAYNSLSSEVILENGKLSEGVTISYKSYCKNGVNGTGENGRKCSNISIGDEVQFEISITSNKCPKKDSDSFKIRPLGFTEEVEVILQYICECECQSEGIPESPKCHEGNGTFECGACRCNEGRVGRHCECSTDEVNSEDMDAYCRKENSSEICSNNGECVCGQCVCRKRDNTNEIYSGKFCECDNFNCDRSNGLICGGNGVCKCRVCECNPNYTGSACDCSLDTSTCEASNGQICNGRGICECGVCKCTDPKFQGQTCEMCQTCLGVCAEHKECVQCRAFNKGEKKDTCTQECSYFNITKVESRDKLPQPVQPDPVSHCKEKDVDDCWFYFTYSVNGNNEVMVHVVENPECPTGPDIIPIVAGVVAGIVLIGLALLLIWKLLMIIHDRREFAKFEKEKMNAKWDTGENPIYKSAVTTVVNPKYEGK

In the case of cyclo(RGD[dF]K) [Compound 12 (Table 3) c(RGDfK)], the results for the IC50 with integrin α5β1 and with integrin αIIbβ3 were 141 nM and over 10000 nM, respectively.

Consider RGDL[dP][NMeK]([(PEG)5-BODIPY(FL)])GL (not fully specified (bridges); also: cyclic, closure not given here) [Compound 9d (9-(PEG)5-BDPFL)], for which the IC50 with integrin αvβ8 is 1.25 nM; with integrin α5β1, 95 nM; with integrin αvβ5 it was over 10000 nM; with integrin αvβ6 it was 247 nM; with integrin αvβ3, 98 nM.

A word on the IC50: it is the point on the concentration scale where inhibition reaches its midpoint. Low readings indicate greater potency, high ones weaker potency.
